In the supplement of paper PMC10065799, “High-throughput profiling of sequence recognition by tyrosine kinases and SH2 domains using bacterial peptide display” (eLife, 2023):

target: Fes (UniProt P07332); test: phosphorylation enrichment, bacterial display (enrichment ratio); higher = better substrate or ligand; peptides without Tyr show the background
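Wherever SH2 binding enrichment of the phosphorylated peptide, bacterial display is given: peptide library displayed on the E. coli surface as eCPX fusions, selected cells deep-sequenced, score is each peptide's frequency after selection divided by its frequency in the input.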
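Wherever phosphorylation enrichment, bacterial display is given: 11-residue human phosphosite peptides and single-mutation variants displayed on the E. coli surface, counted by deep sequencing, each peptide's frequency after selection divided by its frequency in the unselected input library; frequency after pTyr selection over input frequency; kinase dosed for 20-30% of maximal phosphorylation in three min.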

Chain of Fes (P07332 whole entry, looked up, the tested form may be a part): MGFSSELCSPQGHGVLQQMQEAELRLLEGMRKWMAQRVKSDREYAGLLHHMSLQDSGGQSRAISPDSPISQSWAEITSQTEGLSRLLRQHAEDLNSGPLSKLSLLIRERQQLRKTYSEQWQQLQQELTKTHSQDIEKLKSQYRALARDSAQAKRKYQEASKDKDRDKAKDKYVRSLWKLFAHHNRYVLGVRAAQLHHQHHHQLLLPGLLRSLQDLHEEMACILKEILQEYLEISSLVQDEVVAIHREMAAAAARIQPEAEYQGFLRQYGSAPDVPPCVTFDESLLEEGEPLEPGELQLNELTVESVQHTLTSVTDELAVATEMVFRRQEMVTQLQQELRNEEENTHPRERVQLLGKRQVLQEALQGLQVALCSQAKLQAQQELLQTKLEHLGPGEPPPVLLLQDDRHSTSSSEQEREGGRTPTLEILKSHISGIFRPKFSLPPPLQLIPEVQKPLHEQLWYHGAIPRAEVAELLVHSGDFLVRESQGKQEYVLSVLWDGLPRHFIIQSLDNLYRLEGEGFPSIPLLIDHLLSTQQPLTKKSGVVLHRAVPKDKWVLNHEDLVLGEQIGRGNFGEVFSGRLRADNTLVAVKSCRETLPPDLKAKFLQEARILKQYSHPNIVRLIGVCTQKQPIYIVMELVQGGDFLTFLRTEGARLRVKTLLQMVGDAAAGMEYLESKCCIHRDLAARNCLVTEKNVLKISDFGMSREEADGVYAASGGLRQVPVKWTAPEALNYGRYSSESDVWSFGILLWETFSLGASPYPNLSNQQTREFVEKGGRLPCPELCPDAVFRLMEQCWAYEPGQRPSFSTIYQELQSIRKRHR

First: LFQAKYQIRFR [CRLF1_Y272_YF]
Second: ETALHYIHDGI [GATD3A_Y250]
The phosphorylation enrichment of the first is higher: 1.6 for the first, 0.796 for the second.

First: ECKFLYSRKEG [PTPN11_Y263_L261F]
Second: GPGLVYRVANK [FLNB_Y1833_G1834R]
The phosphorylation enrichment of the first is higher: 0.939 for the first, 0.793 for the second.

First: RPSELYFSKIS [SMG1_Y2253_G2258S_YF]
Second: VRSNHYDPEED [TJP1_Y1346]
The phosphorylation enrichment of the first is higher: 1.4 for the first, 1.19 for the second.

First: TDDMRYPMKSE [TGDS_Y302_N298D]
Second: ITNLLYHVVGG [GBA_Y412_W417G]
The phosphorylation enrichment of the first is lower: 0.863 for the first, 1.12 for the second.

First: VKANTYENYWP [GATM_Y100_K102N]
Second: GETEQYVGGGG [FAT4_Y4980_A4977T]
The phosphorylation enrichment of the first is lower: 0.81 for the first, 0.922 for the second.

Going from IYQASYYRRGD [LTK_Y676_R673Q] to RPAPQYPHQVP [ADAM12_Y895], the phosphorylation enrichment rises from 0.695 to 1.02.

Going from RTLTHYKSAVK [ASNS_Y555] to EWKQNYEESQS [MYH7_Y1460_K1459N], the phosphorylation enrichment rises from 0.813 to 1.25.

Compared with SSPQLYLVPFL [TAF4_Y652_P651L], REVPVYTFSEP [FAM120B_Y368_D370Y_YF] is higher in phosphorylation enrichment: 0.974 for the first, 1.54 for the second.

Going from VDGSVYKLHPS [GCK_Y413] to QRTMKYTTATG [MCCC1_Y41], the phosphorylation enrichment rises from 0.655 to 0.669.

Compared with IALSKYGRVKR [FGF6_Y186], KFEDVYVRICL [B3GALNT1_Y269_G271R] is higher in phosphorylation enrichment: 0.564 for the first, 1.38 for the second.

First: KIEGIYARDET [RPL35A_Y34_V33I]
Second: NHRNQYQALKP [CLSPN_Y887]
The phosphorylation enrichment of the first is higher: 0.919 for the first, 0.534 for the second.

Going from IGMLIYFARKA [VCAM1_Y718_I716L] to VKANTYENFWP [GATM_Y100_K102N_YF], the phosphorylation enrichment rises from 0.846 to 1.04.

First: NTFEKYLGEEF [TF_Y669_YF]
Second: PDGHEYIYVDP [PDGFRA_Y572]
The phosphorylation enrichment of the first is lower: 1.21 for the first, 1.39 for the second.

Going from PGPQSYPIVTG [PAX5_Y299] to GDAMLYFPSVS [GPR143_Y177_A173D_YF], the phosphorylation enrichment rises from 0.736 to 0.823.

First: KTDKKYLMIEE [BAG3_Y451]
Second: DKEKWYPLGNS [PIK3C2G_Y1438]
The phosphorylation enrichment of the first is higher: 1.11 for the first, 0.868 for the second.

Going from NFSKMYCNPDA [KNL1_Y489_A486S_YF] to NTGDDYDLFGG [PTPN11_Y63_Y62D_YF], the phosphorylation enrichment rises from 0.924 to 1.21.

Sequence HLQDEYDFKCK [STAT1_Y170_D165H] has a phosphorylation enrichment of 1.59.

target: Grb2 SH2 (UniProt P62993); test: SH2 binding enrichment of the phosphorylated peptide, bacterial display (enrichment ratio); higher = better substrate or ligand; peptides without Tyr show the background
Sequence (P62993 whole entry, looked up): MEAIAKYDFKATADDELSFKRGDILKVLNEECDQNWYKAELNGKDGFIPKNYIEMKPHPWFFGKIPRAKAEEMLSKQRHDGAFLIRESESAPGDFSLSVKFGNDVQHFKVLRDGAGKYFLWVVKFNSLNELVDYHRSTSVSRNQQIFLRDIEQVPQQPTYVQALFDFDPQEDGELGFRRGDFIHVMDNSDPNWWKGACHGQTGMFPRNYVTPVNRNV

Compared with LFQAKYQIRFR [CRLF1_Y272_YF], ETALHYIHDGI [GATD3A_Y250] is lower in SH2 binding enrichment: 1.19 for the first, 0.786 for the second.

Going from ECKFLYSRKEG [PTPN11_Y263_L261F] to GPGLVYRVANK [FLNB_Y1833_G1834R], the SH2 binding enrichment falls from 1.06 to 0.999.

Compared with RPSELYFSKIS [SMG1_Y2253_G2258S_YF], VRSNHYDPEED [TJP1_Y1346] is higher in SH2 binding enrichment: 0.741 for the first, 1.02 for the second.

First: TDDMRYPMKSE [TGDS_Y302_N298D]
Second: ITNLLYHVVGG [GBA_Y412_W417G]
The SH2 binding enrichment of the first is lower: 0.827 for the first, 1.07 for the second.

Going from VKANTYENYWP [GATM_Y100_K102N] to GETEQYVGGGG [FAT4_Y4980_A4977T], the SH2 binding enrichment falls from 13.2 to 0.798.

First: IYQASYYRRGD [LTK_Y676_R673Q]
Second: RPAPQYPHQVP [ADAM12_Y895]
The SH2 binding enrichment of the first is lower: 0.628 for the first, 1.06 for the second.

Compared with RTLTHYKSAVK [ASNS_Y555], EWKQNYEESQS [MYH7_Y1460_K1459N] is lower in SH2 binding enrichment: 0.934 for the first, 0.829 for the second.

Going from SSPQLYLVPFL [TAF4_Y652_P651L] to REVPVYTFSEP [FAM120B_Y368_D370Y_YF], the SH2 binding enrichment falls from 1.35 to 1.16.

Compared with VDGSVYKLHPS [GCK_Y413], QRTMKYTTATG [MCCC1_Y41] is higher in SH2 binding enrichment: 0.755 for the first, 0.85 for the second.

Compared with IALSKYGRVKR [FGF6_Y186], KFEDVYVRICL [B3GALNT1_Y269_G271R] is higher in SH2 binding enrichment: 0.711 for the first, 0.816 for the second.

Going from KIEGIYARDET [RPL35A_Y34_V33I] to NHRNQYQALKP [CLSPN_Y887], the SH2 binding enrichment rises from 0.883 to 1.06.

Going from IGMLIYFARKA [VCAM1_Y718_I716L] to VKANTYENFWP [GATM_Y100_K102N_YF], the SH2 binding enrichment rises from 1.43 to 12.5.

Going from NTFEKYLGEEF [TF_Y669_YF] to PDGHEYIYVDP [PDGFRA_Y572], the SH2 binding enrichment rises from 0.667 to 2.06.

Compared with PGPQSYPIVTG [PAX5_Y299], GDAMLYFPSVS [GPR143_Y177_A173D_YF] is lower in SH2 binding enrichment: 1 for the first, 0.744 for the second.

Compared with KTDKKYLMIEE [BAG3_Y451], DKEKWYPLGNS [PIK3C2G_Y1438] is higher in SH2 binding enrichment: 0.762 for the first, 0.83 for the second.

First: NFSKMYCNPDA [KNL1_Y489_A486S_YF]
Second: NTGDDYDLFGG [PTPN11_Y63_Y62D_YF]
The SH2 binding enrichment of the first is higher: 0.751 for the first, 0.666 for the second.

Work on HLQDEYDFKCK [STAT1_Y170_D165H] yielded an SH2 binding enrichment of 0.797.

target: c-Src SH2; test: as above

Going from LFQAKYQIRFR [CRLF1_Y272_YF] to ETALHYIHDGI [GATD3A_Y250], the SH2 binding enrichment falls from 0.813 to 0.501.

First: ECKFLYSRKEG [PTPN11_Y263_L261F]
Second: GPGLVYRVANK [FLNB_Y1833_G1834R]
The SH2 binding enrichment of the first is higher: 0.6 for the first, 0.499 for the second.

First: RPSELYFSKIS [SMG1_Y2253_G2258S_YF]
Second: VRSNHYDPEED [TJP1_Y1346]
The SH2 binding enrichment of the first is higher: 0.758 for the first, 0.578 for the second.

Going from TDDMRYPMKSE [TGDS_Y302_N298D] to ITNLLYHVVGG [GBA_Y412_W417G], the SH2 binding enrichment rises from 0.439 to 0.953.

First: VKANTYENYWP [GATM_Y100_K102N]
Second: GETEQYVGGGG [FAT4_Y4980_A4977T]
The SH2 binding enrichment of the first is higher: 3.55 for the first, 0.506 for the second.

Compared with IYQASYYRRGD [LTK_Y676_R673Q], RPAPQYPHQVP [ADAM12_Y895] is higher in SH2 binding enrichment: 0.412 for the first, 0.647 for the second.

Going from RTLTHYKSAVK [ASNS_Y555] to EWKQNYEESQS [MYH7_Y1460_K1459N], the SH2 binding enrichment rises from 0.545 to 0.561.

Going from SSPQLYLVPFL [TAF4_Y652_P651L] to REVPVYTFSEP [FAM120B_Y368_D370Y_YF], the SH2 binding enrichment falls from 0.721 to 0.496.

Going from VDGSVYKLHPS [GCK_Y413] to QRTMKYTTATG [MCCC1_Y41], the SH2 binding enrichment falls from 0.488 to 0.473.

Going from IALSKYGRVKR [FGF6_Y186] to KFEDVYVRICL [B3GALNT1_Y269_G271R], the SH2 binding enrichment falls from 0.501 to 0.472.

Compared with KIEGIYARDET [RPL35A_Y34_V33I], NHRNQYQALKP [CLSPN_Y887] is higher in SH2 binding enrichment: 0.548 for the first, 0.915 for the second.

Going from IGMLIYFARKA [VCAM1_Y718_I716L] to VKANTYENFWP [GATM_Y100_K102N_YF], the SH2 binding enrichment rises from 0.993 to 2.84.

Going from NTFEKYLGEEF [TF_Y669_YF] to PDGHEYIYVDP [PDGFRA_Y572], the SH2 binding enrichment rises from 0.378 to 0.752.

First: PGPQSYPIVTG [PAX5_Y299]
Second: GDAMLYFPSVS [GPR143_Y177_A173D_YF]
The SH2 binding enrichment of the first is higher: 0.646 for the first, 0.528 for the second.

Compared with KTDKKYLMIEE [BAG3_Y451], DKEKWYPLGNS [PIK3C2G_Y1438] is lower in SH2 binding enrichment: 0.473 for the first, 0.44 for the second.

Going from NFSKMYCNPDA [KNL1_Y489_A486S_YF] to NTGDDYDLFGG [PTPN11_Y63_Y62D_YF], the SH2 binding enrichment falls from 2.54 to 0.376.

HLQDEYDFKCK [STAT1_Y170_D165H] showed an SH2 binding enrichment of 0.423.

target: SHP2-C SH2; test: as above

First: LFQAKYQIRFR [CRLF1_Y272_YF]
Second: ETALHYIHDGI [GATD3A_Y250]
The SH2 binding enrichment of the first is higher: 1.32 for the first, 1.03 for the second.

Going from ECKFLYSRKEG [PTPN11_Y263_L261F] to GPGLVYRVANK [FLNB_Y1833_G1834R], the SH2 binding enrichment rises from 0.626 to 0.722.

Going from RPSELYFSKIS [SMG1_Y2253_G2258S_YF] to VRSNHYDPEED [TJP1_Y1346], the SH2 binding enrichment rises from 0.702 to 0.744.

Compared with TDDMRYPMKSE [TGDS_Y302_N298D], ITNLLYHVVGG [GBA_Y412_W417G] is higher in SH2 binding enrichment: 0.626 for the first, 1.12 for the second.

Going from VKANTYENYWP [GATM_Y100_K102N] to GETEQYVGGGG [FAT4_Y4980_A4977T], the SH2 binding enrichment falls from 1.9 to 0.553.

Compared with IYQASYYRRGD [LTK_Y676_R673Q], RPAPQYPHQVP [ADAM12_Y895] is lower in SH2 binding enrichment: 0.742 for the first, 0.687 for the second.

Going from RTLTHYKSAVK [ASNS_Y555] to EWKQNYEESQS [MYH7_Y1460_K1459N], the SH2 binding enrichment falls from 0.83 to 0.666.

Going from SSPQLYLVPFL [TAF4_Y652_P651L] to REVPVYTFSEP [FAM120B_Y368_D370Y_YF], the SH2 binding enrichment falls from 1.21 to 0.8.

Going from VDGSVYKLHPS [GCK_Y413] to QRTMKYTTATG [MCCC1_Y41], the SH2 binding enrichment falls from 1.01 to 0.432.

Going from IALSKYGRVKR [FGF6_Y186] to KFEDVYVRICL [B3GALNT1_Y269_G271R], the SH2 binding enrichment rises from 0.447 to 0.758.

First: KIEGIYARDET [RPL35A_Y34_V33I]
Second: NHRNQYQALKP [CLSPN_Y887]
The SH2 binding enrichment of the first is lower: 0.788 for the first, 1.05 for the second.

Going from IGMLIYFARKA [VCAM1_Y718_I716L] to VKANTYENFWP [GATM_Y100_K102N_YF], the SH2 binding enrichment rises from 1.23 to 1.58.

First: NTFEKYLGEEF [TF_Y669_YF]
Second: PDGHEYIYVDP [PDGFRA_Y572]
The SH2 binding enrichment of the first is lower: 0.656 for the first, 0.748 for the second.

Compared with PGPQSYPIVTG [PAX5_Y299], GDAMLYFPSVS [GPR143_Y177_A173D_YF] is lower in SH2 binding enrichment: 0.861 for the first, 0.632 for the second.

Going from KTDKKYLMIEE [BAG3_Y451] to DKEKWYPLGNS [PIK3C2G_Y1438], the SH2 binding enrichment rises from 0.573 to 1.11.

Compared with NFSKMYCNPDA [KNL1_Y489_A486S_YF], NTGDDYDLFGG [PTPN11_Y63_Y62D_YF] is lower in SH2 binding enrichment: 0.619 for the first, 0.439 for the second.

HLQDEYDFKCK [STAT1_Y170_D165H] showed an SH2 binding enrichment of 0.48.
